The source of these data is publication PMC6445466.

In test [1] the target is human C1r, full-length enzyme (human) (UniProt P00736).
Test [2] has as its target BAD16-C (residues 204-352, B. afzelii strain PGau) (Borrelia afzelii strain PGau). The test can be described thus: SPR; Biacore T200, 25°C; borrelial protein immobilised by amine coupling (CMD200M chip); C1 as analyte, two-fold dilution series 0 to 150 nM, 2 min association, 3 min dissociation; HBS-T (20 mM HEPES pH 7.3, 140 mM NaCl, 0.005% Tween-20) with 5 mM CaCl2; 1:1 kinetic fit; triplicate. Background: SPR reads the build-up and loss of mass on a sensor chip optically.

The target of test [3] is BBK32(206-348) (residues 206-348, B. burgdorferi strain B31) (Borrelia burgdorferi strain B31) (UniProt O50835). The description is as above.
Test [4] concerns the target BBK32-C (residues 206-354, B. burgdorferi strain B31) (Borrelia burgdorferi strain B31) (UniProt O50835). The description is as above.
Test [5] concerns the target BXK32-C (BBK32-C E308K-Q319K-E324Q) (Borrelia burgdorferi strain B31) (UniProt O50835). Described as above.

Chain of human C1r, full-length enzyme (human) (P00736 18-705): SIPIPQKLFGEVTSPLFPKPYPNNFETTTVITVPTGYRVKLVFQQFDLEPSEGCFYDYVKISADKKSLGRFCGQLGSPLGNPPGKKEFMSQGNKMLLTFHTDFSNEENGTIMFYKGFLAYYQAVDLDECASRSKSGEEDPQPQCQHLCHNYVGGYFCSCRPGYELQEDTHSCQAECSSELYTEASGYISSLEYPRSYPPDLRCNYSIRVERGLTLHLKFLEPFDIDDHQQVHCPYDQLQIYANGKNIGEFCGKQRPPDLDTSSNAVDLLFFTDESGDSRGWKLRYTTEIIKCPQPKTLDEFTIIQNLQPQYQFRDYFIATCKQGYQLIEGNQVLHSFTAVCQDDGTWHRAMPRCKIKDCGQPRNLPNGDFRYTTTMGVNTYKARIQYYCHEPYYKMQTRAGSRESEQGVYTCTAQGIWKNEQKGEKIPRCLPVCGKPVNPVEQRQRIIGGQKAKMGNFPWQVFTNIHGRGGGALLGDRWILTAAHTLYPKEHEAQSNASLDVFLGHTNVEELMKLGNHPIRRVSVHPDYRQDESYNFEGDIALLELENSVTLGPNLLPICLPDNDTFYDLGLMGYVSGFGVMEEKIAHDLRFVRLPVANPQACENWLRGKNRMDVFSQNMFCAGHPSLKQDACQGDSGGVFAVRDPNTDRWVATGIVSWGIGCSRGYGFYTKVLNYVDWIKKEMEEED

Consider “BAD16-C (residues 204-352, B. afzelii strain PGau) (domain or fragment)”, for which, in test [1], the IC50 of C3b deposition, classical pathway-specific ELISA with normal human serum is 9.6 nM; the IC50 of MAC deposition, classical pathway-specific ELISA with normal human serum worked out at 5.9 nM; the IC50 of classical pathway hemolysis of sensitized sheep red blood cells by human serum came to 55 nM.

Usually Kd stands for the concentration at which binding is half-saturated. As usually defined, the koff is a measure of how fast the partners let go of each other. Low readings indicate a long-lived complex, high ones a short-lived complex. In the case of “human C1 complex (from UniProt P02745 23-245; P02746 28-253; P02747 29-245)”, the Kd came out at 5.4 nM in test [2], 5.6 nM in test [3], 6 nM in test [4] and 4.7 nM in test [5]. The koff in test [3] was 0.00054 s⁻¹; in test [4], 0.0005 s⁻¹; in test [5], 3.8e-05 s⁻¹.
